Laboratory results reported in PMC5352738, “Characterization of three pyranose dehydrogenase isoforms from the litter-decomposing basidiomycete Leucoagaricus meleagris (syn. Agaricus meleagris)” (Applied Microbiology and Biotechnology, 2016).

Tested on: CCn1c(=N[N]c2sc3cc(S(=O)(=O)O)ccc3[n+]2CC)sc2cc(S(=O)(=O)O)ccc21
Assay: purified protein
Details: pH 4.0; 30.0 °C

| Substance | Km | kcat/Km |
| --- | --- | --- |
| AmPDH3 (Macropsalliota meleagris) | 13.2 ± 1.2 µM | 532000 M⁻¹ s⁻¹ |
| AmPDH1 (Macropsalliota meleagris) | 79.1 ± 9 µM | 94600 M⁻¹ s⁻¹ |
| AmPDH2 (Macropsalliota meleagris) | 109 ± 10 µM | 38900 M⁻¹ s⁻¹ |
